Results: paper PMC3286869 (Journal of Medicinal Chemistry, 2012)
Bridges are numbered along the chain shown (N, C = ends). Where no end group is shown, it is not given here. [ ]: non-standard residue; d: D form. dLys(N3) = [N-]=[N+]=NCCCC[C@@H](N)C(=O)O; Lys(N3) = [N-]=[N+]=NCCCC[C@H](N)C(=O)O; dPra = C#CC[C@@H](N)C(=O)O; Pra = C#CC[C@H](N)C(=O)O

T1: β-catenin (UniProt P35222 1-781)
T1 sequence (looked up): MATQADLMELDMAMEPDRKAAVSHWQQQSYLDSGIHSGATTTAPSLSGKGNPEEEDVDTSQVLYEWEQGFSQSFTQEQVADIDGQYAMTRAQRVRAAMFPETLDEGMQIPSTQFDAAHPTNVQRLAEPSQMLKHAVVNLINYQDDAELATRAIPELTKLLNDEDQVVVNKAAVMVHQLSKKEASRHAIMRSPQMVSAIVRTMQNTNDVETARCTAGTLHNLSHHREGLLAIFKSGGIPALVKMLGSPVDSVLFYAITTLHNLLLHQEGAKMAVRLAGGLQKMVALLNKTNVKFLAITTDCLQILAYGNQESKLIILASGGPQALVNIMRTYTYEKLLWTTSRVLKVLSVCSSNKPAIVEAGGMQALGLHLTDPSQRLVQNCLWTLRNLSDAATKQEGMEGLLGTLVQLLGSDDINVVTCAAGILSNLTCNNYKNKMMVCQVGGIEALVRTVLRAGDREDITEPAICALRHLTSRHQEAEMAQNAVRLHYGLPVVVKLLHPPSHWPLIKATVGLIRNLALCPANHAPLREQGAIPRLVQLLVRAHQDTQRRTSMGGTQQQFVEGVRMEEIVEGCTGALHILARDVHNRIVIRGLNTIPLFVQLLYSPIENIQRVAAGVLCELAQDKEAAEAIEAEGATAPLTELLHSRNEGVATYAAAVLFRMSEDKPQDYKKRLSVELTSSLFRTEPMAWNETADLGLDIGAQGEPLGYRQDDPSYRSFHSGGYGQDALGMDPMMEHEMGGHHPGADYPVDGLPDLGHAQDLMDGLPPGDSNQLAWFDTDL


target: T1, β-catenin; experiment: fluorescence polarisation

Ki	Binder
2010 nM	LSQEQLEHRERSL[Lys(N3)]TLR[dPra]IQRLLF (not fully specified (N-terminus, C-terminus)) [BCL9 peptide 21 (linkers closer to the C-terminus, linear)]
410 nM	LSQEQ[Lys(N3)]EHR[dPra]RSLQTLRDIQRLLF (triazole 6-10; not fully specified (N-terminus, C-terminus)) [triazole-stapled BCL9 peptide 20 (staple closer to the N-terminus)]
6660 nM	LSQEQLEHRERSL[Pra]TLR[dLys(N3)]IQRLLF (not fully specified (N-terminus, C-terminus)) [BCL9 peptide 23 (reverse linkers towards the C-terminus, linear)]
260 nM	LSQEQLEHRERSL[Lys(N3)]TLR[dPra]IQRLLF (triazole 14-18; not fully specified (N-terminus, C-terminus)) [triazole-stapled BCL9 peptide 22 (C-terminal stapled peptide)]
1970 nM	LSQEQ[Lys(N3)]EHR[dPra]RSLQTLRDIQRLLF (not fully specified (N-terminus, C-terminus)) [BCL9 peptide 19 (linkers closer to the N-terminus, linear)]
560 nM	LSQEQLEHRERSL[Pra]TLR[dLys(N3)]IQRLLF (triazole 14-18; not fully specified (N-terminus, C-terminus)) [triazole-stapled BCL9 peptide 24 (reverse staple towards the C-terminus)]

target: T1, β-catenin; experiment: fluorescence polarisation; remark: another data set of the same source

Ki	Binder
770 nM	LSQEQLEHR[Pra]RSL[Lys(N3)]TLRDIQRLLF (triazole 10-14; not fully specified (N-terminus, C-terminus)) [triazole-stapled BCL9 peptide 16 (reversed linker, L-Pra and L-Nle(εN3))]
330 nM	LSQEQLEHR[Lys(N3)]RSL[Pra]TLRDIQRLLF (triazole 10-14; not fully specified (N-terminus, C-terminus)) [triazole-stapled BCL9 peptide 11]
4300 nM	LSQEQLEHR[dPra]RSL[Lys(N3)]TLRDIQRLLF (triazole 10-14; not fully specified (N-terminus, C-terminus)) [triazole-stapled BCL9 peptide 18 (reversed staple, D-Pra at position 360)]
4900 nM	LSQEQLEHR[Lys(N3)]RSL[dPra]TLRDIQRLLF (not fully specified (N-terminus, C-terminus)) [BCL9 peptide 4 (linear precursor of 12)]
1400 nM	LSQEQLEHR[Lys(N3)]RSL[Pra]TLRDIQRLLF (not fully specified (N-terminus, C-terminus)) [BCL9 peptide 3 (linear precursor of 11)]
600 nM	Ac-LSQEQLEHRERSLQTLRDIQRMLF-NH2 [BCL9 24-mer peptide 1]
940 nM	Ac-LSQEQLEHRERSLQTLRDIQRLLF-NH2 [BCL9 24-mer peptide 2 (M372L)]
11000 nM	LSQEQLEHR[Pra]RSL[dLys(N3)]TLRDIQRLLF (not fully specified (N-terminus, C-terminus)) [BCL9 peptide 9 (linear precursor of 17)]
130 nM	LSQEQLEHR[Lys(N3)]RSL[dPra]TLRDIQRLLF (triazole 10-14; not fully specified (N-terminus, C-terminus)) [triazole-stapled BCL9 peptide 12]
1170 nM	LSQEQLEHR[Pra]RSL[dLys(N3)]TLRDIQRLLF (triazole 10-14; not fully specified (N-terminus, C-terminus)) [triazole-stapled BCL9 peptide 17 (reversed staple, D-Nle(εN3) at i+4)]
